Read-outs that look alike come from different tables or passages of the source.
B1: OT-hDHFRN-005: hDHFR A125F, Y122I-GFP (protein, UniProt P00374 1-187, looked up, variant A125F Y122I)
Dihydrofolate reductase: MVGSLNCIVAVSQNMGIGKNGDLPWPPLRNEFRYFQRMTTTSSVEGKQNLVIMGKKTWFSIPEKNRPLKGRINLVLSRELKEPPQGAHFLSRSLDDALKLTEQPELANKVDMVWIVGGSSVIKEFMNHPGHLKLFVTRIMQDFESDTFFPEIDLEKYKLLPEYPGVLSDVQEEKGIKYKFEVYEKND
modifications: GFP fusion
notes: hDHFR A125F, Y122I-GFP
B2: OT-hDHFRN-008: hDHFR G21T, Y122I-GFP (protein, UniProt P00374 1-187, looked up, variant G21T Y122I)
Dihydrofolate reductase: MVGSLNCIVAVSQNMGIGKNTDLPWPPLRNEFRYFQRMTTTSSVEGKQNLVIMGKKTWFSIPEKNRPLKGRINLVLSRELKEPPQGAHFLSRSLDDALKLTEQPELANKVDMVWIVGGSSVIKEAMNHPGHLKLFVTRIMQDFESDTFFPEIDLEKYKLLPEYPGVLSDVQEEKGIKYKFEVYEKND
modifications: GFP fusion
notes: hDHFR G21T, Y122I-GFP
B3: OT-hDHFRC-015: GFP-hDHFR (A125F, Y122I) (protein, UniProt P00374 1-187, looked up, variant A125F Y122I)
Dihydrofolate reductase: MVGSLNCIVAVSQNMGIGKNGDLPWPPLRNEFRYFQRMTTTSSVEGKQNLVIMGKKTWFSIPEKNRPLKGRINLVLSRELKEPPQGAHFLSRSLDDALKLTEQPELANKVDMVWIVGGSSVIKEFMNHPGHLKLFVTRIMQDFESDTFFPEIDLEKYKLLPEYPGVLSDVQEEKGIKYKFEVYEKND
modifications: N-terminal GFP fusion
B4: OT-hDHFRN-007: hDHFR L94A, T147A-GFP (protein, UniProt P00374 1-187, looked up, variant L94A T147A)
Dihydrofolate reductase: MVGSLNCIVAVSQNMGIGKNGDLPWPPLRNEFRYFQRMTTTSSVEGKQNLVIMGKKTWFSIPEKNRPLKGRINLVLSRELKEPPQGAHFLSRSADDALKLTEQPELANKVDMVWIVGGSSVYKEAMNHPGHLKLFVTRIMQDFESDAFFPEIDLEKYKLLPEYPGVLSDVQEEKGIKYKFEVYEKND
modifications: GFP fusion
notes: hDHFR L94A, T147A-GFP

Experiments:
[1] = cited from earlier work; for Duration of action: in vivo
HCT-116 = assay: Surface expression of IL15-IL15Ra fusion constructs, PE-IL15Ra antibody FACS; format: cell-based, human; conditions: for Median Fluorescence Intensity, surface IL15-IL15Ra: 24 h
Procedure: Membrane bound-IL15-IL15Ra constructs (OT-IL15-008 to OT IL-15-011) were transduced into human colorectal carcinoma cell line, HCT-116 and stable integrants were selected with 2 μg of puromycin.
Surface expression of IL15-IL15Ra fusion constructs was examined by staining with PE-conjugated IL15Ra antibody (Cat no. 330207, Biolegend, San Diego, CA). The median fluorescence intensity obtained with the different constructs in the presence or absence of the corresponding ligand is presented in Table 53. The stabilization ratio was calculated as the fold change in fluorescence intensity in ligand treated samples compared to treatment with DMSO (i.e. in the absence of ligand) with the same construct. The destabilization ratio was calculated as the fold change in fluorescence intensity in the DD regulated constructs compared to the constitutive construct (OT-IL15-008) in the absence of the ligand. Destabilization ratios less than 1 and stabilization ratios greater than 1 are desired in DDs.
Membrane bound-IL15-IL15Ra constructs (OT-IL15-008 to OT IL15-011) were transduced into human colorectal carcinoma cell line, HCT-116 and stable integrants were selected with 2 μg of puromycin.
Surface expression of IL15-IL15Ra fusion constructs was examined by staining with PE-conjugated IL15Ra antibody (Cat no. 330207, Biolegend, San Diego, CA). The median fluorescence intensity obtained with the different constructs in the presence or absence of the corresponding ligand is presented in Table 55.
The stabilization ratio was calculated as the fold change in GFP intensity in ligand treated samples compared to treatment with DMSO (i.e. in the absence of ligand) with the same construct. The destabilization ratio was calculated as the fold change in GFP intensity in the DD regulated constructs compared to the constitutive construct (OT-IL15-008) in the absence of the ligand. Destabilization ratios less than 1 and stabilization ratios greater than 1 are desired in DDs.

HEK-293T cells = assay: IL15 western blot of DD IL15-IL15Ra, transient transfection; format: cell-based, human; conditions: 10 μM Trimethoprim or 1 μM Shield-1, 24 h
Procedure: To test ligand dependent IL15-IL15Ra production, 1 million HEK-293T cells were plated in a 6-well plate in growth media containing DMEM and 10 FBS and incubated overnight at 37° C., 5% CO2. […] Cells were harvested and IL15 levels are analyzed via western blotting using human IL15 antibody (Abcam, Cambridge, UK).

NK-92 cells = assay: NK-92 activation markers with IL12 (Table 83); format: cell-based; conditions: IL12 10 ng/ml, 18 h
Procedure: The dependency of the NK-92 cells on cytokines for activation was tested. […] The cells were cultured for 18 hours in the presence of IL12 (10 ng/ml) or varying concentrations of IL15 (100 ng/ml, 20 ng/ml, 4 ng/ml, 0.8 ng/ml, 0.16 ng/ml, 0.032 ng/ml, 0.0064 ng/ml and 0.00128 ng/ml). NK-92 cell activation in response to IL15 and IL12 treatment was evaluated by FACS analysis using a panel of markers whose increased expression is associated with NK activation. These include NKG2D, CD71, CD69; chemokine receptors such as CCR5, CXCR4, and CXCR3, Perforin, Granzyme B and Interferon gamma (IFNg). Prior to FACS analysis for IFNg, cells were cultured for 4 hours with Brefeldin A. NK cells respond to external stimuli such as cytokines in their environment through the phosphorylation of proteins JAK/STAT, ERK, and p38/MAPK pathways which are important for cell activation, signaling and differentiation pathways. The phosphorylation of AKT, STAT3 and STAT5 in response to cytokine addition was measured by FACS. Since phosphorylation events are transient NK-92 cells were treated with the cytokines for 15 or 60 minutes, prior to the analysis.

T cells = assay: IL12/IL2 effect on T cell expansion and IFNgamma positive CD4+/CD8+ T cells; format: cell-based, human
From the text: The goal of the study was to determine the T cell stimulation regimen and dose of IL12 needed to maximize T cell persistence and T cell differentiation in vitro, to mimic an in vivo adoptive cell transfer therapy regimen. The study recapitulates the design of the adoptive cell therapy regimen wherein the T cells were initially exposed to the antigen in vitro which results in activation followed by a resting phase and finally in vivo transfer where the T cells encounter the antigen again. T cells were stimulated CD3/CD28 beads or soluble CD3/CD28 on day 0 and the CD3/CD28 stimulus was washed off at the end of 48 hours. Cells were treated with a dose of IL12 ranging from 0.01-1000 ng/mL. On day 9, the Th1 phenotype of the cells was evaluated by examining the frequency of IFNgamma positive CD4+ cells and CD8+ cells. On day 14, cells were divided into two groups—one group received a second CD3/CD28 stimulation and a second group that was not stimulated. On day 16, the Th1 phenotype was evaluated in both groups using FACS.
To test the requirement of IL2 and IL12 for T cells expansion and activation, T cells were stimulated with soluble CD3/CD28, CD3/CD28 Dynabeads or left unstimulated for two days. Each of these groups was further split into two sub groups. One sub group was treated with IL2 and 100 ng/ml of IL12 while the second sub group was treated with IL2 only for the duration of the stimulation. For the soluble CD3/CD28 stimulated cells, a third subgroup that was only treated with 100 ng/ml of IL12 was also included.
The effect of IL12 on T cell activation was measured by determining the frequency of IFNgamma positive CD4+ and CD8+ T cells. IFNg is produced by activated T cells. Three different stimulation protocols were used. In the first protocol, cells were stimulated with CD3/CD28 dynabeads for 2 days, following which the beads were washed off and the cells were treated with varying concentrations of IL12 for 7 days (from day 2 to day 9). At day 9, cells were restimulated with soluble CD3/CD28 and the frequency of IFNgamma positive cells was determined by FACS. […] In the second protocol, following 2 day CD3/CD28 dynabeads stimulation, T cells were maintained in culture for a longer duration of 14 days i.e. from day 2 to day 16. At day 16, cells were restimulated with soluble CD3/CD28. At day 16, the frequency of IFNgamma positive cells was measured. […] In the third protocol, T cells were initially stimulated for 2 days with CD3/CD28 dynabeads and IL2, followed by treatment with IL2 only for 9 days (i.e. from day 2 to day 11), followed by IL12 treatment for 2 to 5 days. In the last two days of the experiment, cells were also restimulated with soluble CD3/CD28. IFNgamma positive CD4 and CD8 cells were measured using FACS. The third protocol mimics the environment that is presented to T cells in adoptive cell therapy, both during in vitro transduction and T cells expansion as well as the in vivo.

Human T cells = assay: IL12 induced differentiation of human T cells, IFN gamma / CD3 flow cytometry; format: cell-based; conditions: IL12 treated (untreated 0.21)
Procedure: IL12 promotes the differentiation of naïve T cells into Th1 cells which results in the secretion of IFN gamma from T cells. Human T cells were treated with IL12 or left untreated and analyzed by flow cytometry for the expression of IFN gamma and T cell marker CD3.

NIH 3T3 cells = assay: hDHFR mutant-GFP reporter stability with DMSO, MTX or TMP (FACS); format: cell-based; conditions: for GFP intensity Fold Change vs DMSO: 48 h; for Destabilizing mutation co-efficient: GFP intensity vs hDHFR (WT); for Destabilizing mutation co-efficient / Median Fluorescence signal with DMSO: no ligand; for Median Fluorescence signal with DMSO: hDHFR-GFP, DMSO 48 h
From the text: Known destabilizing mutations in E. coli DHFR (ecDHFR) were mapped onto the structure of human DHFR (hDHFR) and corresponding mutations in wild type hDHFR protein were generated using site directed mutagenesis. hDHFR mutants were then fused to a linker, GGSGGG (SEQ ID NO: 2728) and a GFP reporter gene at the N terminus. […] The hDHFR N terminus mutant construct cloned into pLVX. IRES. The reporter constructs were transfected into NIH 3T3 cells. […] DMSO was used as control. Fluorescence signal was measured by FACS and median fluorescence signal intensity was calculated. The destabilizing mutation co-efficient was calculated as the fold change in GFP intensity in the hDHFR mutant constructs compared to the hDHFR (WT) in the absence of the ligand. Destabilizing mutation co-efficients less than 1 are desired in DDs.
Percentage of GFP positive cells as a measure of ligand dependent DD stabilization in each transfection was calculated using FACS Calibur™ (see Table 46).

hDHFR = assay: Immunoblot of hDHFR WT and mutants after TMP, MTX or DMSO; format: cell-based, human; conditions: MTX or DMSO 48 h
From the text: The results were consistent using both the AcGFP antibody as well as the hDHFR antibody.

HEK 293T cells = assay: GFP-hDHFR C terminus fusions, MFI (FACS); format: cell-based, human; conditions: 1 μM MTX or 50 μM TMP, 48 h
Procedure: DDs may be positioned upstream or downstream of the payload within an SRE. hDHFR mutants generated by structure guided mutagenesis as discussed in example 2 were fused at the C-terminus of GFP to test if the hDHFR mutants can destabilize proteins of interest when fused to the C-terminus of the protein of interest. A linker, GGSGGG (SEQ ID NO. 6413) was placed between GFP and hDHFR and cloned into pLVX.IRES. Puro.
Following the incubation, median fluorescence intensity (MFI) was measured using FACS.

Molecule	% GFP positive cells (NIH 3T3 cells; 1 μM MTX) [%]	GFP intensity Fold Change vs DMSO (NIH 3T3 cells; 1 μM MTX)	% GFP positive cells (NIH 3T3 cells; 10 μM TMP) [%]	GFP intensity Fold Change vs DMSO (NIH 3T3 cells; 10 μM TMP)	% GFP positive cells (NIH 3T3 cells; DMSO) [%]	Destabilizing mutation co-efficient (NIH 3T3 cells)	Median Fluorescence signal with DMSO (NIH 3T3 cells)	Protein level stabilization (immunoblot, FIG. 19) (hDHFR)	further results
COc1cc(Cc2cnc(N)nc2N)cc(OC)c1OC [Trimethoprim]	–	–	–	–	–	–	–	–	Cmax ([1]; IV, approved dose IV 20 mg/kg/6 hr): 25000 nM; Cmax ([1]; PO, approved dose PO up to 20 mg/kg/day): 1000 nM; Duration of action [1]: 2 to 72 h
OT-IL15-006: IL15-IL15Ra fusion with ecDHFR (R12Y, E129K) DD	–	–	–	–	–	–	–	–	Median Fluorescence Intensity, surface IL15-IL15Ra (HCT-116; 10 μM TMP): 2978; Median Fluorescence Intensity, surface IL15-IL15Ra (HCT-116; DMSO): 764; Stabilization ratio (HCT-116; TMP vs DMSO): 3.90; Destabilization ratio (HCT-116; vs constitutive OT-IL15-008, no ligand): 0.14; IL15 stabilization by western blot (FIG. 24A) (HEK-293T cells): modest ligand dependent stabilization of IL15
IL12: cytokine added to T cells or NK-92 cells	–	–	–	–	–	–	–	–	Fold change in MFI vs untreated, CCR5 (NK-92 cells): 1.60; Fold change in MFI vs untreated, Granzyme (NK-92 cells): 1.87; Fold change in MFI vs untreated, IFNg (NK-92 cells): 1.74; Fold change in MFI vs untreated, Perforin (NK-92 cells): 1.67; Fold change vs untreated, IFNg (supernatant) (NK-92 cells): 666.15; Requirement for T cell expansion (FIG. 37A) (T cells; 14 days, CD3/CD28 stimulation): may be dispensable; IL12 dose causing Th1-skewing and IFN gamma production (T cells; T cells in vitro, day 16): 0.1 ng/mL; EC50, IFNgamma positive cells (T cells; first protocol (7 days IL12), CD8 cells): 0.05 ng/mL; EC50, IFNgamma positive cells (T cells; second protocol (14 days), CD4 cells): 0.012 ng/mL; EC50, IFNgamma positive cells (T cells; second protocol (14 days), CD8 cells): 0.065 ng/mL; EC50, IFNgamma positive cells (T cells; third protocol, IL12 final 5 days, CD4 cells): 0.024 ng/mL; EC50, IFNgamma positive cells (T cells; third protocol, IL12 final 5 days, CD8 cells): 0.04 ng/mL; Percentage of IFN gamma positive T cells (Human T cells): 22.3%
CN(Cc1cnc2nc(N)nc(N)c2n1)c1ccc(C(=O)N[C@@H](CCC(=O)O)C(=O)O)cc1 [Methotrexate]	–	–	–	–	–	–	–	–	Cmax ([1]; 12 g/m^2 infusion): 1500 nM; Duration of action [1]: >12 h
B1	89.6	26.98	54.7	6.24	0.64	0.14	2.55	stabilized following treatment with both MTX and TMP	–
B2	86.6	14.53	2.92	1.30	0.61	0.18	3.27	stabilization exclusively with MTX	–
B3	–	–	–	–	–	–	–	–	MFI change over DMSO, GFP-hDHFR C terminus fusion (FIG. 20) (HEK 293T cells): several fold increase in MFI over DMSO with both MTX and TMP
B4	40.7	4.46	0.52	1.00	0.26	0.15	2.67	stabilization exclusively with MTX	–

From patent US12104178B2, “DHFR tunable protein regulation” (Obsidian Therapeutics, Inc., priority 2017, dated 2024)
